From US20170218352
Like-named read-outs stand apart in the source and are kept apart here.

Experiments:
type V collagen [1] = system: type V collagen
type III collagen [2] = system: type III collagen
type IV collagen [3] = system: type IV collagen
type VI collagen [4] = system: type VI collagen
type I collagen [5] = system: type I collagen
type II collagen [6] = system: type II collagen
[7] = system: fluorescently labeled type I collagen (FITC-collagen)
[8] = system: N-(3[2-furyl]acryloyl)-Leu-Gly-Pro-Ala
[9] = biological target: fluorescently labeled type I collagen (FITC-collagen); remark: listed apart in the source
type VI collagen [10] = biological target: type VI collagen; remark: listed apart in the source
type V collagen [11] = biological target: type V collagen; remark: listed apart in the source
type IV collagen [12] = biological target: type IV collagen; remark: listed apart in the source
type II collagen [13] = biological target: type II collagen; remark: listed apart in the source
type III collagen [14] = biological target: type III collagen; remark: listed apart in the source
[15] = biological target: T1, N-(3[2-furyl]acryloyl)-Leu-Gly-Pro-Ala
T1 chain: LGPA

type I collagen [16] = biological target: type I collagen; remark: listed apart in the source

Question: Which results are given for “collagenase derived from Clostridium histolyticum (manufactured by Roche Applied Science, trade name "Liberase C/T")”?
Answer: disappearance of collagen bands on electrophoresis after incubation (type V collagen [1]): the bands do not disappear when the liberase is used; disappearance of collagen bands on electrophoresis after incubation (type III collagen [2]): This tendency was also similarly observed for the type II, type III, type IV, type V, and type VI collagens; disappearance of collagen bands on electrophoresis after incubation (type IV collagen [3]): the bands do not disappear when the liberase is used; disappearance of collagen bands on electrophoresis after incubation (type VI collagen [4]): the band does not disappear when the liberase is used; disappearance of collagen bands on electrophoresis after incubation (type I collagen [5]): the recombinant 62 kDa collagenase seems to more rapidly digest the type I collagen than liberase; disappearance of collagen bands on electrophoresis after incubation (type II collagen [6]): This tendency was also similarly observed for the type II, type III, type IV, type V, and type VI collagens; Maximum rate [7]: 0.00016 mM/s; Michaelis constant [7]: 0.0019 mM; Molecular activity [7]: 18.7 s⁻¹; Specific activity [7]: 1770 U/mg; Maximum rate [8]: 0.2 mM/s; Michaelis constant [8]: 2.03 mM; Molecular activity [8]: 22.2 s⁻¹; Specific activity [8]: 2.6 U/mg

B1: recombinant 60 kDa collagenase (Grimontia hollisae-derived recombinant collagenase) (protein)
chain: AVEQCDLSQFQTTSSNQLMAAIRQQGASCVNALFSADTGVQEAAFSSNHMYNVAQYTRTLAQQYAGGGSDELEALYLYLRAGYYAEFYNSNITFLSWVTPAVKGAVDAFVQNAHFYDNGDAHGKVLNEVIITMDSAGLQHAYLDVVTQWLTRWNAQYAEHWYMRNAVNGVFTLLFGGQWNNQYTSLIGEQTALVTALQAFALDRTKVNSPTEFMAANAARELGRLARYTDATIAPKVTEGLTAIFGQYPSYGDGDAIWLGAADTASYYADCSQFNICGFEDALRDAALNQTFICSDTIKIRSQDMSQAQHLAACDKMAYEESFFHTTLETGNQPVADDHNTQLQVNIFNSDTDYGKYAGPIFGIDTNNGGMYLEGNPANVGNIPNFIAYEASYANPDHFVWNLEHEYVHYLDGRFNMYGDFGTPTELVVWWSEGVAEYVSRVNDNPQAIATIQDGSTYTLAQVFDTTYDGFDVDRIYRWGYLAVRFMFERHPDEVQRMLSATRQGRWAEYKAIISGWANQYQSEFAQWTEALAKGDS
Question: How did the “specific activity (from immediately after the purification to 24 hours)” value [9] turn out when B1 was run?
Answer: Its value is 12,000 (U/mg).

B2: recombinant 62 kDa collagenase (Grimontia hollisae-derived recombinant collagenase) (protein)
chain: AVEQCDLSQFQTTSSNQLMAAIRQQGASCVNALFSADTGVQEAAFSSNHMYNVAQYTRTLAQQYAGGGSDELEALYLYLRAGYYAEFYNSNITFLSWVTPAVKGAVDAFVQNAHFYDNGDAHGKVLNEVIITMDSAGLQHAYLDVVTQWLTRWNAQYAEHWYMRNAVNGVFTLLFGGQWNNQYTSLIGEQTALVTALQAFALDRTKVNSPTEFMAANAARELGRLARYTDATIAPKVTEGLTAIFGQYPSYGDGDAIWLGAADTASYYADCSQFNICGFEDALRDAALNQTFICSDTIKIRSQDMSQAQHLAACDKMAYEESFFHTTLETGNQPVADDHNTQLQVNIFNSDTDYGKYAGPIFGIDTNNGGMYLEGNPANVGNIPNFIAYEASYANPDHFVWNLEHEYVHYLDGRFNMYGDFGTPTELVVWWSEGVAEYVSRVNDNPQAIATIQDGSTYTLAQVFDTTYDGFDVDRIYRWGYLAVRFMFERHPDEVQRMLSATRQGRWAEYKAIISGWANQYQSEFAQWTEALAKGDSGAGNGEGTGSGNEGGGESGGNT
Question: For B2, which “disappearance of collagen bands on electrophoresis after incubation” value (“disappearance of collagen bands” for short) (type VI collagen [10]) is on record?
Answer: The value was “the band become weaker when the recombinant 62 kDa collagenase is used to react for 72 hours”.

Question: What about the “disappearance of collagen bands” value (type V collagen [11]) of the same molecule?
Answer: Its value is “the band become weaker when the recombinant 62 kDa collagenase is used to react for three hours or five hours”.

Question: And the “disappearance of collagen bands” value (type IV collagen [12])?
Answer: The value was “the band become weaker when the recombinant 62 kDa collagenase is used to react for three hours or five hours”.

Question: What about the “disappearance of collagen bands” value (type II collagen [13]) of the same molecule?
Answer: Its value is “This tendency was also similarly observed for the type II, type III, type IV, type V, and type VI collagens”.

Question: And the “disappearance of collagen bands” value (type III collagen [14])?
Answer: The value was “This tendency was also similarly observed for the type II, type III, type IV, type V, and type VI collagens”.

Question: And the Maximum rate [15]?
Answer: The Maximum rate was 0.6 mM/s.

Question: And the Michaelis constant [15]?
Answer: Its Michaelis constant is 2.28 mM.

Question: What about the Molecular activity [15] of the same molecule?
Answer: Its Molecular activity is 37.5 s⁻¹.

Question: And the Specific activity [15]?
Answer: Its Specific activity is 9.39 U/mg.

Question: What about the “disappearance of collagen bands” value (type I collagen [16]) of the same molecule?
Answer: Its value is “the recombinant 62 kDa collagenase seems to more rapidly digest the type I collagen than liberase”.

Question: And the Maximum rate [9]?
Answer: Its Maximum rate is 0.00041 mM/s.

Question: And the Michaelis constant [9]?
Answer: Its Michaelis constant is 0.0011 mM.

Question: What about the Molecular activity [9] of the same molecule?
Answer: The Molecular activity was 25.1 s⁻¹.

Question: What about the Specific activity [9] of the same molecule?
Answer: Its Specific activity is 5490 U/mg.

Question: What about the “specific activity (from immediately after the purification to 24 hours)” value [9] of the same molecule?
Answer: The value was 12,000 (U/mg).

B3: 74 kDa collagenase (Grimontia hollisae-derived collagenase lacking the prepro region) (protein)
chain: AVEQCDLSQFQTTSSNQLMAAIRQQGASCVNALFSADTGVQEAAFSSNHMYNVAQYTRTLAQQYAGGGSDELEALYLYLRAGYYAEFYNSNITFLSWVTPAVKGAVDAFVQNAHFYDNGDAHGKVLNEVIITMDSAGLQHAYLDVVTQWLTRWNAQYAEHWYMRNAVNGVFTLLFGGQWNNQYTSLIGEQTALVTALQAFALDRTKVNSPTEFMAANAARELGRLARYTDATIAPKVTEGLTAIFGQYPSYGDGDAIWLGAADTASYYADCSQFNICGFEDALRDAALNQTFICSDTIKIRSQDMSQAQHLAACDKMAYEESFFHTTLETGNQPVADDHNTQLQVNIFNSDTDYGKYAGPIFGIDTNNGGMYLEGNPANVGNIPNFIAYEASYANPDHFVWNLEHEYVHYLDGRFNMYGDFGTPTELVVWWSEGVAEYVSRVNDNPQAIATIQDGSTYTLAQVFDTTYDGFDVDRIYRWGYLAVRFMFERHPDEVQRMLSATRQGRWAEYKAIISGWANQYQSEFAQWTEALAKGDSGAGNGEGTGSGNEGGGESGGNTGLPENCAVLPKISDGRLALDEAACLADTASASDVLWFSIPAVSEYQTIAITAGNGTGDLTLEYSNLNWPDGTNVQASSANMGNSECIILEHQANYWGYLKVSGSFENAALLVEAGSNQCRQ
Question: Which results are given for B3?
Answer: specific activity (24 hours after the purification) [9]: 11,500 (U/mg); specific activity (immediately after the purification) [9]: 18,000 (U/mg)
